Measurements published in article PMC9482650, “Quantitative fragmentomics allow affinity mapping of interactomes” (Nature Communications, 2022).
Positions count from the first letter of the chain named.

Experiments:
Assay in all cases: holdup assay
Parameters in all cases: key: below the threshold = too weak to quantify, mostly under pKd 3.1 to 4
[1] = target: AHNAK1, Q09666
[2] = target: T1, APBA1_1, Q02410
T1 sequence (Q02410 651-752, limits assumed, looked up): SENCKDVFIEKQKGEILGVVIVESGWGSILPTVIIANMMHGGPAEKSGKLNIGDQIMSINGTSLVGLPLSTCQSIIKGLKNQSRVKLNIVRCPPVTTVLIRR

[3] = target: ARHGEF12, Q9NZN5-2
Chain of ARHGEF12, Q9NZN5-2 (Q9NZN5 other isoform, or with tags, fused parts or gaps): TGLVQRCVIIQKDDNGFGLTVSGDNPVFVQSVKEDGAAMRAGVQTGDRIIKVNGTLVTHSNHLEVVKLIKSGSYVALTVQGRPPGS

[4] = target: CASK, O14936
Chain of CASK, O14936 (O14936 487-570): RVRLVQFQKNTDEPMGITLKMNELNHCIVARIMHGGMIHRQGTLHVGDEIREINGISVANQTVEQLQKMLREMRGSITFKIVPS

[5] = target: T2, DLG3_3, Q92796
T2 sequence (Q92796 374-475, limits assumed, looked up): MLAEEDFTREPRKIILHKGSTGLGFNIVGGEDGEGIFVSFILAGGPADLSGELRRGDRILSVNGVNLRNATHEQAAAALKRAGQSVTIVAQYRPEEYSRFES

[6] = target: GORASP1, Q9BQQ3
Chain of GORASP1, Q9BQQ3 (Q9BQQ3 1-208): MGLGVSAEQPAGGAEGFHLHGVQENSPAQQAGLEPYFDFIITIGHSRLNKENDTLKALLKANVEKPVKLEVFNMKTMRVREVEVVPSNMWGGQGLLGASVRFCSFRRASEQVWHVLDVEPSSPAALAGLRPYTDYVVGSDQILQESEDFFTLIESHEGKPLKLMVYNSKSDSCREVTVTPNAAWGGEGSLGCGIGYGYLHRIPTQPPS

[7] = target: T3, GRIP1_2, Q9Y3R0
T3 sequence (Q9Y3R0 145-248, limits assumed, looked up): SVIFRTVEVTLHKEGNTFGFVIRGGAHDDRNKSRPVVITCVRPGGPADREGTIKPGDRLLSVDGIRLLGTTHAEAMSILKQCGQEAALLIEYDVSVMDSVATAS

[8] = target: T4, GRIP1_7, Q9Y3R0
T4 sequence (Q9Y3R0 999-1096, limits assumed, looked up): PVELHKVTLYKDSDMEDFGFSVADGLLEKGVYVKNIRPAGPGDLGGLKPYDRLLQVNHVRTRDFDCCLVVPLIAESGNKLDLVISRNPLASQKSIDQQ

[9] = target: HTRA2, O43464
Chain of HTRA2, O43464 (O43464 355-458): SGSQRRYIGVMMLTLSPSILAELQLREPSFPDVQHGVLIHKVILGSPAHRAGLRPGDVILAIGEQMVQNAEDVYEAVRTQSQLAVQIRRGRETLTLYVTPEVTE

[10] = target: Inadl_1, Q8NI35
Chain of Inadl_1, Q8NI35 (Q8NI35 113-229): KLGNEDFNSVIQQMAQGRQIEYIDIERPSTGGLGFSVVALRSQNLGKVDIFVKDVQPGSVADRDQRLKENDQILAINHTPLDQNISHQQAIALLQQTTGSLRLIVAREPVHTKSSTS

[11] = target: Inadl_8, Q8NI35
Chain of Inadl_8, Q8NI35 (Q8NI35 1425-1530): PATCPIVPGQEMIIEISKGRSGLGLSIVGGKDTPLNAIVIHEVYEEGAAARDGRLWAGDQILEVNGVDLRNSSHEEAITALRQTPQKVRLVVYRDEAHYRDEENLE

[12] = target: T5, LIN7B, Q9HAP6
T5 sequence (Q9HAP6 88-185, limits assumed, looked up): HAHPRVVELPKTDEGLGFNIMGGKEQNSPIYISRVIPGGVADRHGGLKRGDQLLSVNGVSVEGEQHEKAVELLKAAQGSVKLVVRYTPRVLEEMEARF

[13] = target: T6, LIN7C, Q9NUP9
T6 sequence (Q9NUP9 88-185, limits assumed, looked up): T5 sequence (Q9HAP6 88-185, limits assumed, looked up) with A2S, D13E, V35I, V40I, Q65H, S79K, R89K, A96S

[14] = target: LNX1_1, Q8TBB1
Chain of LNX1_1, Q8TBB1 (Q8TBB1 261-371): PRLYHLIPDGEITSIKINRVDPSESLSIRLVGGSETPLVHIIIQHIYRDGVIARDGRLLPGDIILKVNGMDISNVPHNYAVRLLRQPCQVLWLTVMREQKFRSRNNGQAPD

[15] = target: MAGI2_3, Q86UL8
Chain of MAGI2_3, Q86UL8 (Q86UL8 600-682): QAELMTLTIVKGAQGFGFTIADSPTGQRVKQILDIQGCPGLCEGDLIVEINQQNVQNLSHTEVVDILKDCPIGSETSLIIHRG

[16] = target: MAGI2_5, Q86UL8
Chain of MAGI2_5, Q86UL8 (Q86UL8 915-1017): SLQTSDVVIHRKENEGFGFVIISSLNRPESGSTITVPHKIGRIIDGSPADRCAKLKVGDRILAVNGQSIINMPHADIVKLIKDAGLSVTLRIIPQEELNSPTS

[17] = target: MAGI3_2, Q5TCQ9
Chain of MAGI3_2, Q5TCQ9 (Q5TCQ9 398-503): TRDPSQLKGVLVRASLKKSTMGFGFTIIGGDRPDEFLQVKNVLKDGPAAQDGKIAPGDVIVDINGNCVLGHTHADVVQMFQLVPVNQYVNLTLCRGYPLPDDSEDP

[18] = target: MAST1, Q9Y2H9
Chain of MAST1, Q9Y2H9 (Q9Y2H9 962-1065): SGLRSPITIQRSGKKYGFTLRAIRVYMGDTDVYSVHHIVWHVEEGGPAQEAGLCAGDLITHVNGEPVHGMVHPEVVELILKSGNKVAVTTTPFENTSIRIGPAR

[19] = target: MAST2, Q6P0Q8
Chain of MAST2, Q6P0Q8 (Q6P0Q8 1099-1202): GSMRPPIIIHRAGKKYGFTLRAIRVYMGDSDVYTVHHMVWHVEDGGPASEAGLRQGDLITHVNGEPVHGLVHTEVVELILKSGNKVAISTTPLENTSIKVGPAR

[20] = target: NHERF2_2, Q15599
Chain of NHERF2_2, Q15599 (Q15599 142-238): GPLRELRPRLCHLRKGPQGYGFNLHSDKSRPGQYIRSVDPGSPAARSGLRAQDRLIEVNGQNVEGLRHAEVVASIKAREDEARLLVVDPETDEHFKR

[21] = target: NHERF4_1, Q86UT5-2
Chain of NHERF4_1, Q86UT5-2 (Q86UT5 other isoform, or with tags, fused parts or gaps): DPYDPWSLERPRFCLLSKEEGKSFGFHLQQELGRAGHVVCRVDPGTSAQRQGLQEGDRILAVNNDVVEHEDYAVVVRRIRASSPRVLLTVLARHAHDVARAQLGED

[22] = target: PARD3_3, Q8TEW0
Chain of PARD3_3, Q8TEW0 (Q8TEW0 582-685): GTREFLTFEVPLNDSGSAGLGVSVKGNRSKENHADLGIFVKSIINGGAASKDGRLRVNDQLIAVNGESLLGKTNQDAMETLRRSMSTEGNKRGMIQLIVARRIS

[23] = target: PDLIM1, O00151
Chain of PDLIM1, O00151 (O00151 1-87): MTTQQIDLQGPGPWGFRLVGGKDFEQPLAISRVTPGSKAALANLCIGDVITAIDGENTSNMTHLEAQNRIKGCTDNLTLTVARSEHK

[24] = target: PTPN3, P26045
Chain of PTPN3, P26045 (P26045 505-587): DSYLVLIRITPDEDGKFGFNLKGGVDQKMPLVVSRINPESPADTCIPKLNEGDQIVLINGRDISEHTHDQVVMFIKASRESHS

[25] = target: SCRIB_1, Q14160
Chain of SCRIB_1, Q14160 (Q14160 718-814): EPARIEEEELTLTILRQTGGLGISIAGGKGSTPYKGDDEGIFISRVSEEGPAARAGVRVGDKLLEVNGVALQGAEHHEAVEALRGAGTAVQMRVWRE

[26] = target: SCRIB_2, Q14160
Chain of SCRIB_2, Q14160 (Q14160 857-960): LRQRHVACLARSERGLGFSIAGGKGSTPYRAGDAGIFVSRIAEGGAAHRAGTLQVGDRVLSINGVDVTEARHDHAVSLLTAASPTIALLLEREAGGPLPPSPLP

[27] = target: SCRIB_3, Q14160
Chain of SCRIB_3, Q14160 (Q14160 999-1103): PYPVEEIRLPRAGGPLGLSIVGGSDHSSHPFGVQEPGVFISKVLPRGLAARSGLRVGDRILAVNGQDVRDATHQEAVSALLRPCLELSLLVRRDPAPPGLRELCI

[28] = target: T7, SNTG2, Q9NY99
T7 sequence (Q9NY99 68-166, limits assumed, looked up): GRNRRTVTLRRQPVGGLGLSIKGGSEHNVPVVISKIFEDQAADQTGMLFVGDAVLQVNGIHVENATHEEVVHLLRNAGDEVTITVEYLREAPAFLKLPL

[29] = target: SNX27, Q96L92
[30] = target: TJP1_2, Q07157
Chain of TJP1_2, Q07157 (Q07157 181-274): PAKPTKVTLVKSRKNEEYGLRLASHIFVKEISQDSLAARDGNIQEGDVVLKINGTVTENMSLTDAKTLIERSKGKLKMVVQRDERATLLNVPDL

[31] = target: T8, TJP3_3, O95049
T8 sequence (O95049 375-456, limits assumed, looked up): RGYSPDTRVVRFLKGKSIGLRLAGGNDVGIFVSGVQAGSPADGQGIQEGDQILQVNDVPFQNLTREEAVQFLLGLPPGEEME

[32] = plain residues with an end cap or a label only (N-terminal biotin on a linker: ttds)
[33] = plain residues with an end cap or a label only (N-terminal biotin on a linker: ahx)

Chain of AHNAK1, Q09666 (Q09666 4-100): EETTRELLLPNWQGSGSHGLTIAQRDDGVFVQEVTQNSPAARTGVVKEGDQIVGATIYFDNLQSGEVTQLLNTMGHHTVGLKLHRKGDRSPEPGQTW

In the case of QFQYAKESYI [TAGAP, Q8N103], the pKd [1, 32] is reported as “below the threshold”, the pKd [2, 32] is reported as “below the threshold” and the pKd [3, 32] is reported as 3.91. For the same binder, the pKd [4, 32] was “below the threshold”, the pKd [5, 32] was 3.57 and the pKd [6, 32] was 3.9. For the same binder, the pKd [7, 32] was “below the threshold”, the pKd [8, 32] was “below the threshold” and the pKd [9, 32] was “below the threshold”. For the same binder, the pKd [10, 32] was “below the threshold”, the pKd [11, 32] was 3.78 and the pKd [12, 32] was “below the threshold”. For the same binder, the pKd [13, 32] was 4.21, the pKd [14, 32] was 3.66 and the pKd [15, 32] was “below the threshold”. The pKd [16, 32] was “below the threshold”, the pKd [17, 32] was 4.6 and the pKd [18, 32] was 3.54. For the same binder, the pKd [19, 32] was 4.69, the pKd [20, 32] was “below the threshold” and the pKd [21, 32] was “below the threshold”. For the same binder, the pKd [22, 32] was 3.91, the pKd [23, 32] was “below the threshold” and the pKd [24, 32] was 4.84. It also gave a pKd [25, 32] of 3.72, a pKd [26, 32] of 3.56 and a pKd [27, 32] of 4.67. The pKd [28, 32] was 4.42, the pKd [29, 32] was 3.75 and the pKd [30, 32] was “below the threshold”. The pKd [31, 32] was “below the threshold”.

SRRPRTETQV [HPV31-E6, P17386] was tested, and the pKd [1, 32] was “below the threshold”, the pKd [2, 32] was “below the threshold” and the pKd [3, 32] was 3.86. For the same binder, the pKd [4, 32] was “below the threshold”, the pKd [5, 32] was 5.1 and the pKd [6, 32] was “below the threshold”. The pKd [7, 32] was “below the threshold”, the pKd [8, 32] was “below the threshold” and the pKd [9, 32] was “below the threshold”. For the same binder, the pKd [10, 32] was “below the threshold”, the pKd [11, 32] was “below the threshold” and the pKd [12, 32] was 3.68. For the same binder, the pKd [13, 32] was 3.93, the pKd [14, 32] was “below the threshold” and the pKd [15, 32] was 4.1. It also gave a pKd [16, 32] of 3.89, a pKd [17, 32] of 5.87 and a pKd [18, 32] of 4.42. The pKd [19, 32] was 5.23, the pKd [20, 32] was “below the threshold” and the pKd [21, 32] was “below the threshold”. The pKd [22, 32] was “below the threshold”, the pKd [23, 32] was “below the threshold” and the pKd [24, 32] was 4.66. The pKd [25, 32] was 4.6, the pKd [26, 32] was 4.38 and the pKd [27, 32] was 4.56. The pKd [28, 32] was 4.08, the pKd [29, 32] was 4.64 and the pKd [30, 32] was “below the threshold”. For the same binder, the pKd [31, 32] was “below the threshold”.

For TIVSWPGTFL [LNX1, Q8TBB1], the pKd [1, 33] was “below the threshold”, the pKd [2, 33] was “below the threshold” and the pKd [3, 33] was “below the threshold”. The pKd [4, 33] was “below the threshold”, the pKd [5, 33] was “below the threshold” and the pKd [6, 33] was “below the threshold”. For the same binder, the pKd [7, 33] was “below the threshold”, the pKd [8, 33] was “below the threshold” and the pKd [9, 33] was 3.94. The pKd [10, 33] was “below the threshold”, the pKd [11, 33] was “below the threshold” and the pKd [12, 33] was 3.48. The pKd [13, 33] was 3.47, the pKd [14, 33] was 4.09 and the pKd [15, 33] was “below the threshold”. For the same binder, the pKd [16, 33] was “below the threshold”, the pKd [17, 33] was “below the threshold” and the pKd [18, 33] was 4.25. It also gave a pKd [19, 33] of 4.59, a pKd [20, 33] of 4.21 and a pKd [21, 33] of 3.47. The pKd [22, 33] was “below the threshold”, the pKd [23, 33] was 3.63 and the pKd [24, 33] was 4.52. For the same binder, the pKd [25, 33] was “below the threshold”, the pKd [26, 33] was “below the threshold” and the pKd [27, 33] was 4.29. The pKd [28, 33] was “below the threshold”, the pKd [29, 33] was 3.79 and the pKd [30, 33] was “below the threshold”. The pKd [31, 33] was “below the threshold”.
